In article PMC12312386, “Multiple transactivation domains of EZH2 bind to the TAZ2 domain of p300 and stimulate the acetyltransferase function of p300” (Biochemical Journal, 2025):

Biological target: p300 TAZ2 domain with 6xHis tag (p300_(TAZ2)-6×His) (human) (UniProt Q09472)
Assay: MST; p300_(TAZ2)-6×His labelled with RED-tris-NTA, constant at 10 nM; peptide varied by serial dilution; 25 mM Tris pH 7.5, 150 mM NaCl, 2.5 mM DTT; 1:1 stoichiometry fit

| Substance | Kd [nM] |
| --- | --- |
| EZH2_(TAD1) peptide (aa 142-154 of EZH2) (from UniProt Q15910 142-154) | 520 |
| EZH2_(TAD2) peptide (aa 167-185 of EZH2) (from UniProt Q15910 167-185) | 310 |
| EZH2_(TAD3) peptide (aa 220-231 of EZH2) (from UniProt Q15910 220-231) | 530 |
